Reference: patent publication US20120027757A1

Columns and labels:
[1] = target: IGF-IR expressed on Sf9 insect cells infected with baculovirus (UniProt P08069); test: flow cytometry on Sf9 insect cells expressing IGF-IR
[2] = target: IR (insulin receptor) expressed on Sf9 insect cells infected with baculovirus (UniProt P06213); test: flow cytometry on Sf9 insect cells expressing IR

MFI (Mean fluorescence intensity) [1]: 35 | MFI (Mean fluorescence intensity) [2]: 32
Substance: Anti-IGF-IR (αIR3) (antibody)
